Experimental findings from paper PMC3577987 (Journal of molecular biology, 2012) are described below.

The series “SAXS” deals with the molecule itself. Description: SAXS.
The series “pulsed dipolar ESR” deals with the molecule itself. The series can be described thus: pulsed dipolar ESR.
The series “crystal structure” deals with the molecule itself. Description: crystal structure.

B1: Aer2 1–317 (domain or fragment)
chain: MGLFNAHAVAQQRADRIATLLQSFADGQLDTAVGEAPAPGYERLYDSLRALQRQLREQRAELQQVESLEAGLAEMSRQHEAGWIDQTIPAERLEGRAARIAKGVNELVAAHIAVKMKVVSVVTAYGQGNFEPLMDRLPGKKAQITEAIDGVRERLRGAAEATSAQLATAAYNARIKSALDNVSANVMIADNDLNIIYMNRTVSEMLGRAEADIRKQLPNFDAGRLMGANIDVFHKNPAHQRHLLANLTGVHKAELNLGGRRFSLDVVPVFNDANERLGSAVQWTDRTEEHRAEQEVSQLVQAAAAGDFSKRVEEAGK
For B1, in the series “SAXS”, the binding result is given as “binds”.

B2: Aer2 1–402 S183C, MTSSL spin-labeled (domain or fragment)
chain: MGLFNAHAVAQQRADRIATLLQSFADGQLDTAVGEAPAPGYERLYDSLRALQRQLREQRAELQQVESLEAGLAEMSRQHEAGWIDQTIPAERLEGRAARIAKGVNELVAAHIAVKMKVVSVVTAYGQGNFEPLMDRLPGKKAQITEAIDGVRERLRGAAEATSAQLATAAYNARIKSALDNVCANVMIADNDLNIIYMNRTVSEMLGRAEADIRKQLPNFDAGRLMGANIDVFHKNPAHQRHLLANLTGVHKAELNLGGRRFSLDVVPVFNDANERLGSAVQWTDRTEEHRAEQEVSQLVQAAAAGDFSKRVEEAGKEGFFLRLAKDLNSLVDTADRGLRDVSRMLGALAQGDLTQRIEADYQGTFGQLKDFSNDTAQSLSRMLGQIREAADTINTAASEIA
modifications: MTSSL nitroxide spin label on C183
Turning to B2, the binding result in the series “pulsed dipolar ESR” is on record as “binds”.

B3: Aer2 1–402 (domain or fragment)
chain: MGLFNAHAVAQQRADRIATLLQSFADGQLDTAVGEAPAPGYERLYDSLRALQRQLREQRAELQQVESLEAGLAEMSRQHEAGWIDQTIPAERLEGRAARIAKGVNELVAAHIAVKMKVVSVVTAYGQGNFEPLMDRLPGKKAQITEAIDGVRERLRGAAEATSAQLATAAYNARIKSALDNVSANVMIADNDLNIIYMNRTVSEMLGRAEADIRKQLPNFDAGRLMGANIDVFHKNPAHQRHLLANLTGVHKAELNLGGRRFSLDVVPVFNDANERLGSAVQWTDRTEEHRAEQEVSQLVQAAAAGDFSKRVEEAGKEGFFLRLAKDLNSLVDTADRGLRDVSRMLGALAQGDLTQRIEADYQGTFGQLKDFSNDTAQSLSRMLGQIREAADTINTAASEIA
As for B3, the binding result in the series “SAXS” was “binds”.

B4: Aer2 173–289 K176A E275A (domain or fragment)
chain: ARIASALDNVSANVMIADNDLNIIYMNRTVSEMLGRAEADIRKQLPNFDAGRLMGANIDVFHKNPAHQRHLLANLTGVHKAELNLGGRRFSLDVVPVFNDANARLGSAVQWTDRTEE
Regarding B4, the binding result in “crystal structure” is “binds”.
